Measured values: article PMC8062530

Molecular target: Siglec-9, Siglec-10, and Siglec-14
Assay: BLI; Fc-fusions of the Siglec proteins immobilised on Protein A biosensors (ForteBio) at 5 µg/mL; PTGFRN extracellular domain in 2-fold serial dilutions starting at 100 µg/mL; equilibrium dissociation constants calculated with ForteBio Data Analysis software v. 10.0

B1: extracellular domain of PTGFRN (aa 26-832) with a C-terminal histidine tag (domain or fragment)
chain: VPTATLVRVVGTELVIPCNVSDYDGPSEQNFDWSFSSLGSSFVELASTWEVGFPAQLYQERLQRGEILLRRTANDAVELHIKNVQPSDQGHYKCSTPSTDATVQGNYEDTVQVKVLADSLHVGPSARPPPSLSLREGEPFELRCTAASASPLHTHLALLWEVHRGPARRSVLALTHEGRFHPGLGYEQRYHSGDVRLDTVGSDAYRLSVSRALSADQGSYRCIVSEWIAEQGNWQEIQEKAVEVATVVIQPSVLRAAVPKNVSVAEGKELDLTCNITTDRADDVRPEVTWSFSRMPDSTLPGSRVLARLDRDSLVHSSPHVALSHVDARSYHLLVRDVSKENSGYYYCHVSLWAPGHNRSWHKVAEAVSSPAGVGVTWLEPDYQVYLNASKVPGFADDPTELACRVVDTKSGEANVRFTVSWYYRMNRRSDNVVTSELLAVMDGDWTLKYGERSKQRAQDGDFIFSKEHTDTFNFRIQRTTEEDRGNYYCVVSAWTKQRNNSWVKSKDVFSKPVNIFWALEDSVLVVKARQPKPFFAAGNTFEMTCKVSSKNIKSPRYSVLIMAEKPVGDLSSPNETKYIISLDQDSVVKLENWTDASRVDGVVLEKVQEDEFRYRMYQTQVSDAGLYRCMVTAWSPVRGSLWREAATSLSNPIEIDFQTSGPIFNASVHSDTPSVIRGDLIKLFCIITVEGAALDPDDMAFDVSWFAVHSFGLDKAPVLLSSLDRKGIVTTSRRDWKSDLSLERVSVLEFLLQVHGSEDQDFGNYYCSVTPWVKSPTGSWQKEAEIHSKPVFITVKMDVLNAFKYP
Kd: 0.7 to 4 µM
